According to patent US5286847A, “Interleukin-1 muteins, their preparation and method of use to inhibit interleukin-1 activity” (New England Medical Center Hospitals, Inc., priority 1992, dated 1994):

Key:
[1] = molecular target: T1, cell surface receptor of EL4 6.1 C10 murine thymoma cells (Mus musculus, UniProt P13504); test: SDS polyacrylamide gel analysis of specifically bound [35S]-labeled IL-1β proteins; assay type: binding; conditions: FIG. 3
T1 construct: endogenous in cells; host or cells: EL4 6.1 C10 murine thymoma cells
T1 sequence (P13504 20-576): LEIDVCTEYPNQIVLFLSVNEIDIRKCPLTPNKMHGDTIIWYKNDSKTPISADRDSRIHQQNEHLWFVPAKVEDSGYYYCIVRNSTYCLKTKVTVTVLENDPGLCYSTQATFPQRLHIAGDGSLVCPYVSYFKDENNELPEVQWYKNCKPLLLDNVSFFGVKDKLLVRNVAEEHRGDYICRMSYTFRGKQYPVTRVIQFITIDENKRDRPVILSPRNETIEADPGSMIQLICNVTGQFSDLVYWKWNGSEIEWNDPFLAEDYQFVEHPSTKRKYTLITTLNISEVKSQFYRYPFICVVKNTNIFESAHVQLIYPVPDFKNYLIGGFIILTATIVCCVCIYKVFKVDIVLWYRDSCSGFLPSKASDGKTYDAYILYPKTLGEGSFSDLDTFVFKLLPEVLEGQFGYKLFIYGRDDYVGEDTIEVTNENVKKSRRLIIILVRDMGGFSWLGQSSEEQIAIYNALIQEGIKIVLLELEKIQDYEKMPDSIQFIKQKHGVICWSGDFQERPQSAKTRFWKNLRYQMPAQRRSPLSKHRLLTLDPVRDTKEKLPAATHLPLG
Protocol: FIG. 3. Analysis of receptor binding. [^35 S]-labeled IL-1β proteins were incubated at 4° C. with murine EL.4 cells in the absence (-) or presence (+) or nonradioactive competitor recombinant IL-1β protein. Following incubation, the cells were sedimented through silicone oil as described previously (Jobling et al., 1988). The IL-1β proteins are identified at the top of the figure by numbers corresponding to amino acid positions. IL1(1-269) is proIL-1β, while IL1(117-269) corresponds to the mature IL-1β protein. The "native" and "Gly127 " notations at the bottom of the figure refer to the wild-type mature protein (Arg127) and the Arg127 →Gly127 mutein, respectively.
The receptor binding characteristics of the Arg127 →Gly127mutant protein were determined by Scatchard analysis and by sodium dodecyl sulfate (SDS) polyacrylamide gel analysis of specifically bound proteins (Dower et al., 1986; Jobling et al., 1988; Mosley et al., J. Biol. Chem. 1987). For the polyacrylamide gel analysis, IL-1β proteins were labeled with [^35 S]methionine during in vitro translation before cell surface receptor binding assays using EL4 6.1 C10 murine thymoma cells (Jobling et al., 1988; Mosley et al., Proc. Natl. Acad. Sci. USA, 1987; MacDonald, H. R., R. K. Lees, C. Bron [1985] J. Immunol. 135:3944) (FIG. 3). […]

[2] = molecular target: T2, IL-1 receptor on EL.4 cells (Mus musculus, UniProt P13504); test: Equilibrium receptor binding of [35S]-labeled IL-1β peptides to EL.4 cells, Scatchard plot analysis; design: species or system murine; conditions: for receptor affinity compared with wild-type IL-1β (in words): equilibrium binding analyses and competitive binding studies
T2 construct: incubated with EL.4 cells; endogenous in cells; host or cells: EL.4 (murine thymoma)
T2 sequence (P13504 20-576): T1 sequence (P13504 20-576)
Protocol: The conversion of IL-1 molecules by mutation of specific residues gives muteins having utility as IL-1 biological activity inhibitors. Specifically disclosed is the preparation and testing of human IL-1β.
The receptor binding characteristics of the Arg127 →Gly127mutant protein were determined by Scatchard analysis and by sodium dodecyl sulfate (SDS) polyacrylamide gel analysis of specifically bound proteins (Dower et al., 1986; Jobling et al., 1988; Mosley et al., J. Biol. Chem. 1987). For the polyacrylamide gel analysis, IL-1β proteins were labeled with [^35 S]methionine during in vitro translation before cell surface receptor binding assays using EL4 6.1 C10 murine thymoma cells (Jobling et al., 1988; Mosley et al., Proc. Natl. Acad. Sci. USA, 1987; MacDonald, H. R., R. K. Lees, C. Bron [1985] J. Immunol. 135:3944) (FIG. 3). […] Equilibrium binding experiments and Scatchard plot data (Table 1) confirmed the equivalence of binding constants.

[3] = molecular target: T3, EL4 cell receptors (IL-1 receptor) (Mus musculus, UniProt P13504); test: Competitive receptor binding against [35S]-labeled mature IL-1β on EL.4 thymoma cells; design: species or system murine; conditions: 37° C., concentrations up to a five-fold molar excess, FIG. 4
T3 construct: incubating EL.4 thymoma cells; endogenous in cells; host or cells: EL.4 thymoma cells
T3 sequence (P13504 20-576): T1 sequence (P13504 20-576)
Protocol: FIG. 4. Competitive receptor binding. A constant amount of radioactive mature IL-1β protein was added to 1.9×10^7 EL.4 cells in binding medium. The results are presented as a percentage of radioactive IL-1β which bound specifically in the absence of competitor. The 100% value represents approximately 30,000 cpm.
As a further analysis of the receptor binding properties, nonradioactive proteins were used to complete with [^35 S]-labeled wild-type mature IL-1β for binding to EL4 cell receptors (FIG. 4). Competitive receptor binding was performed by incubating EL.4 thymoma cells at 37° C. in the presence of a constant level of [^35 S]-labeled mature IL-1β protein and increasing concentrations of non-radioactiveIL-1β competitor translation products. […] The amount of IL-1β protein synthesized by in vitro translation was determined by specific radioactivity using a radioactive IL-1β protein standard which was quantitated by radioimmune assay. […] The cells were solubilized in lysis buffer (50 mM sodium phosphate, pH 7; 10 mM ethylenediaminetetraacetic acid (EDTA); 0.1% TRITON™ X-100; 0.1% sarkosyl; 10 mM β-mercaptoethanol) before quantitation of bound radioactivity by liquid scintillation counting. […]

[4] = tested on: helper T-cells (D10.G4.1); test: Biological activity: [3H]thymidine incorporation by helper T-cells (D10.G4.1) with diluted translation mixtures; assay type: cell-based; conditions: FIG. 2
Protocol: FIG. 2. Biological activities of IL-1β proteins. Reticulocyte translation mixtures were incubated and assayed in the thymocyte co-stimulation assay as described previously (Jobling et al., 1988). The results are presented as [^3 H]thymidine incorporation (counts/minute)at various final dilutions of the translation mixtures.
The IL-1β proteins were synthesized by in vitro translation of SP6 or T7 messenger RNAs. In vitro protein synthesis was performed as described previously (Jobling et al., 1988; Jobling, S. A., and L. Gehrke [1987] Nature 325:622-625). The translational efficiency of all construct mRNAs was increased by replacing the untranslated leader sequence of the IL-1β mRNA with that of alfalfa mosaic virus RNA (Jobling et al., 1988; Jobling et al., 1987). All IL-1β protein translation products contain the amino-terminal methionine residue added during initiation of protein synthesis. The biological activity of the translation products was tested by quantitating [^3 H]thymidine incorporation by helper T-cells (D10.G4.1) (Kaye, Y., S. Porcelli, J. Tite, B. Jones, C. A. Janeway [1983] J. Exp. Med. 158:836-856) incubated in the presence of diluted translation reaction mixtures (FIG. 2).

[5] = literature (Huang et al. 1987; Jobling et al. 1988); cited from earlier work
[6] = molecular target: T2, IL-1 receptor on EL.4 cells; conditions: Jobling et al., 1988; cited from earlier work

Substance | receptor binding properties by intensity of bound protein bands, compared with native mature IL-1β [1] | Relative binding (receptor binding affinity in relation to mature wild-type IL-1β = 100%) ([2]; EL.4 cells, 4° C.) [%] | receptor affinity compared with wild-type IL-1β (in words) ([2]; listed as Arg127 →Gly127 mutant form of IL-1β) | receptor affinity compared with wild-type IL-1β (in words) ([2]; listed as Arg127 →Gly127 mutant protein) | competition with [35S]-labeled wild-type mature IL-1β for binding (in words) [3] | biological activity (half maximal), fold less than wild-type mature IL-1β [4] | biological activity relative to that induced by mature IL-1β [4] [%] | half maximal biological activity compared with proIL-1β [4] | biological activity (in words) [5] | affinity for receptor, fold less than that of mature IL-1β [6] [fold]
Arg127 →Gly127 mutant: human mature IL-1β mutein made by site-directed mutagenesis of the IL-1β cDNA converting Arg127 to Gly127 | similar | 107 | equal affinity | indistinguishable from that of the wild-type IL-1β protein | reproducibly competed more effectively than the wild-type mature IL-1β | at least 100 fold | 1 | greater than that of proIL-1β | – | –
proIL-1β: human IL-1β 31,000 dalton precursor protein, 269 amino acids | – | – | – | – | competed minimally | – | – | – | relatively low, but distinct biological activity | 30
